Laboratory results published in IntAct's records for PubMed 16513117.

B1: Protein phosphatase Slingshot homolog 1 (Homo sapiens), Q8WYL5 (parent)
chain: MALVTLQRSPTPSAASSSASNSELEAGSEEDRKLNLSLSESFFMVKGAALFLQQGSSPQGQRSLQHPHKHAGDLPQHLQVMINLLRCEDRIKLAVRLESAWADRVRYMVVVYSSGRQDTEENILLGVDFSSKESKSCTIGMVLRLWSDTKIHLDGDGGFSVSTAGRMHIFKPVSVQAMWSALQVLHKACEVARRHNYFPGGVALIWATYYESCISSEQSCINEWNAMQDLESTRPDSPALFVDKPTEGERTERLIKAKLRSIMMSQDLENVTSKEIRNELEKQMNCNLKELKEFIDNEMLLILGQMDKPSLIFDHLYLGSEWNASNLEELQGSGVDYILNVTREIDNFFPGLFAYHNIRVYDEETTDLLAHWNEAYHFINKAKRNHSKCLVHCKMGVSRSASTVIAYAMKEFGWPLEKAYNYVKQKRSITRPNAGFMRQLSEYEGILDASKQRHNKLWRQQTDSSLQQPVDDPAGPGDFLPETPDGTPESQLPFLDDAAQPGLGPPLPCCFRRLSDPLLPSPEDETGSLVHLEDPEREALLEEAAPPAEVHRPARQPQQGSGLCEKDVKKKLEFGSPKGRSGSLLQVEETEREEGLGAGRWGQLPTQLDQNLLNSENLNNNSKRSCPNGMEDDAIFGILNKVKPSYKSCADCMYPTASGAPEASRERCEDPNAPAICTQPAFLPHITSSPVAHLASRSRVPEKPASGPTEPPPFLPPAGSRRADTSGPGAGAALEPPASLLEPSRETPKVLPKSLLLKNSHCDKNPPSTEVVIKEESSPKKDMKPAKDLRLLFSNESEKPTTNSYLMQHQESIIQLQKAGLVRKHTKELERLKSVPADPAPPSRDGPASRLEASIPEESQDPAALHELGPLVMPSQAGSDEKSEAAPASLEGGSLKSPPPFFYRLDHTSSFSKDFLKTICYTPTSSSMSSNLTRSSSSDSIHSVRGKPGLVKQRTQEIETRLRLAGLTVSSPLKRSHSLAKLGSLTFSTEDLSSEADPSTVADSQDTTLSESSFLHEPQGTPRDPAATSKPSGKPAPENLKSPSWMSKS

Variants of: B1
Details: with actb_rabit ACTB

Row | effect of a mutation on the interaction | Variant
1 | disrupting interaction | W458A
